{
  "source": "paper PMC4828312",
  "key": {"[1]": {"target": "Assembled microtubules (containing ~25% of TUBB3) (porcine)", "test": "SPR"}, "[2]": {"target": "Human recombinant tubulin β-3 (TUBB3) (human) (UniProt Q13509)", "sequence (Q13509 whole entry)": "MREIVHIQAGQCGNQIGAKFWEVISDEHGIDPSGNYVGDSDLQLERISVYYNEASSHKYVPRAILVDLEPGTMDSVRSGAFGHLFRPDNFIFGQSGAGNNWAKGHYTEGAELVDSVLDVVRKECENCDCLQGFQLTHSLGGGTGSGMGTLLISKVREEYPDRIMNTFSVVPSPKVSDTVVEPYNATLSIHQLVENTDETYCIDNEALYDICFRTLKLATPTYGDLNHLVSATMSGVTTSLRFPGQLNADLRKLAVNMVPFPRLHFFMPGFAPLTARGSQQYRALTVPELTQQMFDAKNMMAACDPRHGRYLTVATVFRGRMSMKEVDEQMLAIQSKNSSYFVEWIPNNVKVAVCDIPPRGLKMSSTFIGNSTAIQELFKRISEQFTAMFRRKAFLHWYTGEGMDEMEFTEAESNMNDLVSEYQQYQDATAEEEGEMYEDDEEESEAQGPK", "test": "SPR"}},
  "data": [
    {"substance": "HIV-1 envelope glycoprotein gp120, strain ADA (natural protein)", "values": [
      {"measurement": "Kd", "setting": "[1]", "value": 12, "unit": "nM"},
      {"measurement": "Kd", "setting": "[2]", "value": 10.3, "unit": "nM"}
    ]},
    {"substance": "HIV-1 envelope glycoprotein gp120, strain MN (from UniProt P05877 32-513) (natural protein)", "values": [
      {"measurement": "Kd", "setting": "[1]", "value": 62.7, "unit": "nM"}
    ]},
    {"substance": "HIV-1 envelope glycoprotein gp120, strain IIIB (from UniProt P04578 33-511) (natural protein)", "values": [
      {"measurement": "Kd", "setting": "[1]", "value": 10, "unit": "nM"}
    ]}
  ]
}
